# According to patent US20260207715A1, “KIT FOR COMBINATION THERAPY OF TUMOR DISEASES AND/OR INFECTIONS” (priority 2022, published 2026):
# “Also recorded” adds a separate entry of the source.
# Legend:
# [1] = system: HER2-negative cells (MDA-MB-231); assay: Cell-based HER-2 binding assay on fixed HER2-negative cells (negative control); details: MDA-MB-231, fixed cells, fluorescent dye labeled protein
# Experimental: (§1) Shown are results of cell culture experiments to confirm the selective HER2 binding of the fusion proteins. The fusion proteins zHER2:342-APIT and zHER2:342(K4R/K7A/K27R/K49R/K50A/K58A)-APIT were labeled with fluorescent dye and probed for HER2 binding on fixed cells. Cell nuclei were stained with Hoechst33342.
# Right panels: HER2-negative cells (MDA-MB-231).
# (§2) HER2 positive BT-474 (ACC 64), adherent cells were cultured in RPMI 1640 containing 20% (v/v) FBS, MEM non-essential amino acids, 1 mM Pyruvate, 10 μg/ml human insulin. HER2-negative MDA-MB-231 (ACC 732) adherent cells were cultured in Leibowitz' L15, 20% FBS. Cells were cultured from frozen stocks and passaged two times prior to the assay. Cells were incubated at 37° C., 5% CO2 humidified. At a confluency of 80% cell passaging was performed by trypsination using 0.25% (w/v) trypsin/0.2% (w/v) EDTA. Cells were seeded at 10 k cells/well on sterilized degreased 4%-gelatin coated cover slides ([…]) in 24-well plates and grown over night in the incubator. Cells were washed with PBS and fixated with freshly made 4% (w/v) paraformaldehyde solution for 30 min. […] Fluorescence signal was imaged using a ZEISS motorized Axio ZI observer fluorescence microscope. Images were analyzed and processed using Zeiss Zen Pro software.
# ROS (H2O2) production = assay: Enzymatic activity, production of ROS (H2O2), spectrofluorimetric experimental setup; type: biochemical; details: for enzymatically active: fusion protein; for enzymatic activity, production of ROS (H2O2): spectrofluorimetric experimental setup
# Description: The proteins APIT, the fusion protein zHER2:342-APIT and zHER2:342(K4R/K7A/K27R/K49R/K50A/K58A)-APIT were successfully recombinantly produced and purified. The proteins were verified for identity and purity by mass spectrometry and high-performance liquid chromatography (HPLC) (see FIGS. 3 and 4). Subsequently, both proteins were compared with respect to their enzymatic activity, in particular the production of ROS (H2O2) via a spectrofluorimetric experimental setup. The activity of both species is very similar: • APIT: 80 U/mg, • zHER2:342-APIT: 70 U/mg, • zHER2:342(K4R/K7A/K27R/K49R/K50A/K58A)-APIT: 70 U/mg.
# [2] = target: T1, HER2 receptor on HER2-positive cells (BT474 cell line) (Homo sapiens, UniProt P04626); assay: Cell-based HER-2 binding assay on fixed HER2-positive cells; details: fluorescent dye labeled protein
# T1 construct: host or cells: BT-474 (HER2-positive breast cancer cell line), fixed with 4% paraformaldehyde
# Description: as §1
# Left panels: HER2-positive cells (BT474 cell line). Here, the fluorescent dye labeled fusion proteins bind to the HER2 receptor located on the cell membrane.
# as §2
# HER2-positive tumor = assay: Tumor targeting and biodistribution in mice with HER2-positive and HER2-negative tumor; type: in vivo; details: six hours after exposure, NIR-labelled protein
# Experimental: Tumor targeting and biodistribution of (A) zHER2-APIT-NIR and (B) APIT-NIR in mice with HER2-negative tumor (black) and HER2-positive tumor (gray); (whiskers indicate 10-90% percentile values, line in the box is the median; significance was tested with the Mann-Whitney U test, *p<0.05 was considered statistically different; n.s.=not significant; n=6).
# Labelling of 1 eq protein was performed with either 6 eq of AlexaFluor680™-maleimide (NIR) or 10 eq of TexasRed-maleimide in PBS containing 50 mM TCEP pH 7.4 at a protein concentration of 1.0 mg/mL overnight. Reaction mixture was purified via HiTrap Q HP using 50 mM Tris pH 8.0 (A) and 50 mM Tris 1 M NaCl pH 8.0 (B) with following method: 30% B for 45 CV, 30-100% B in 30 CV. The eluent was dialyzed in PBS. The degree of label (DOL) was determined according to the manufacturer's instructions using extinctions coefficient of 1.539 mLmg-1 cm-1 for APIT.
# NIH3T3 cells spheroids = assay: Spheroid formation of NIH3T3 cells, propidium iodide staining; type: cell-based, murine; details: 24 hours
# Experimental: In this example, immortalized murine fibroblast NIH3T3 cells were specifically chosen for generating spheroids due to their ability to produce a consistently uniform, rounded, and tightly cohesive structure. […] To achieve this, NIH3T3 cells (150,000 cells/mL) were seeded on non-tissue culture treated petri dish coverslips in 10 μL drops. Subsequently, they were treated with camptothecin and compound 4, the latter being activated both with and without H2O2, and were incubated upside down for 24 hours at 37° C. under 5% CO2. Following the incubation period, the spheroids were stained with propidium iodide (0.003 μg per 10,000 cells) for 3 minutes at room temperature. The analysis of these spheroids was conducted using an Axio Observer.Z1 microscope equipped with an A-Plan 10×/0.25 Ph1 objective (Zeiss). The images were recorded with a phase-contrast channel, and a 43 DsRed Reflector (λex=538-562 nm λem=570-640 nm) with a mercury vapor short-arc lamp.
Molecule,binding to HER2-negative cells [1],enzymatically active (ROS (H2O2) production),"enzymatic activity, production of ROS (H2O2) (ROS (H2O2) production) [U/mg]",binding to HER2-positive cells [2],levels in HER2-positive xenografts compared to HER2-negative tissues (HER2-positive tumor),effect on spheroids (NIH3T3 cells spheroids)
"zHER2:342(K4R/K7A/K27R/K49R/K50A/K58A)-APIT: fusion protein of lysine-deleted zHER2:342 mutant and APIT, SEQ ID NO. 5",not HER2 negative cells,enzymatically active,70,bind to HER2 positive; also recorded: confirmed,,
"zHER2:342-APIT: fusion protein of targeting sequence zHER2:342 and APIT, SEQ ID NO. 4",not HER2-negative cells,remain enzymatically active,70,bind to HER2-positive; also recorded: confirmed,,
"zHER2-APIT: APIT fused with the zHER2 affibody, AlexaFluor680 (NIR) labelled for biodistribution",,,,,Significantly higher levels,
CC[C@@]1(O)C(=O)OCc2c1cc1n(c2=O)Cc2cc3ccccc3nc2-1 [camptothecin],,,,,,disintegration of spheroids
"APIT: FAD-binding L-amino acid oxidase from Aplysia punctata, SEQ ID NO. 1 (protein, listed as Aplysia punctata, FAD cofactor) MDGVSRNRRQCNREVCGSTYDVAVVGAGPGGANSAYMLRDSGLDIAVFEYSDRVGGRLFTYQLPNTPDVNLEIGGMRFIEGAMHRLWRVISELGLTPKVFKEGFGKEGRQRFYLRGQSLTKKQVKSGDVPYDLSPEEKENQGNLVEYYLEKLTGLQLNGEPLKREVALKLTVPDGRFLYDLSFDEAMDLVASPEGKEFTRDTHVFTGEVTLDASAVSLFDDHLGEDYYGSEIYTLKEGLSSVPQGLLQAFLDAADSNEFYPNSHLKALRRKTNGQYVLYFEPTTSKDGQTTINYLEPLQVVCAQRVILAMPVYALNQLDWNQLRNDRATQAYAAVRPIPASKVFMTFDQPWWLENERKSWVTKSDALFSQMYDWQKSEASGDYILIASYADGLKAQYLRELKNQGEDIPGSDPGYNQVTEPLKDTILDHLTEAYGVERDSIPEPVTAASQFWTDYPFGCGWITWRAGFHFDDVISTMRRPSLKDEVYVVGADYSWGLISSWIEGALETSENVINDYFL",,,80,,did not show differences,
